# Results: patent US20230183328A1
# Columns and labels:
# [1] = target: CD32a (UniProt P12318); assay: CD32a binding assay; formulation F0, 25°C/1M
# [2] = target: antigen of the Antigen binding ELISA (not named; BAN2401 is described as binding human Aβ protofibrils) (UniProt P05067); assay: antigen binding ELISA; formulation F18, 5°C/2M
# [3] = target: antigen of the Antigen binding ELISA (not named; BAN2401 is described as binding human Aβ protofibrils) (UniProt P05067); assay: antigen binding ELISA; formulation F17, 25°C/1M
# [4] = target: CD32a (UniProt P12318); assay: CD32a binding assay; formulation F0, 25°C/1M; remark: listed apart in the source
# [5] = target: antigen of the Antigen binding ELISA (not named; BAN2401 is described as binding human Aβ protofibrils) (UniProt P05067); assay: antigen binding ELISA; formulation F18, 25°C dark/7 D
# [6] = target: CD32a (UniProt P12318); assay: CD32a binding assay; formulation F15, 25°C/2M
# [7] = target: CD32a (UniProt P12318); assay: CD32a binding assay; formulation F18, initial
# [8] = target: antigen of the Antigen binding ELISA (not named; BAN2401 is described as binding human Aβ protofibrils) (UniProt P05067); assay: antigen binding ELISA; formulation F18, 25°C/1M
# [9] = target: CD32a (UniProt P12318); assay: CD32a binding assay; formulation F18, freeze-thaw 3 cycles
# [10] = target: antigen of the Antigen binding ELISA (not named; BAN2401 is described as binding human Aβ protofibrils) (UniProt P05067); assay: antigen binding ELISA; formulation F18, 25°C 1000 lx/7 D
# [11] = target: CD32a (UniProt P12318); assay: CD32a binding assay; formulation F17, 25°C/1M
# [12] = target: CD32a (UniProt P12318); assay: CD32a binding assay; formulation F13, 25°C/1M
# [13] = target: CD32a (UniProt P12318); assay: CD32a binding assay; formulation F17, 5°C/2M
# [14] = target: antigen of the Antigen binding ELISA (not named; BAN2401 is described as binding human Aβ protofibrils) (UniProt P05067); assay: antigen binding ELISA; formulation F15, 5°C/2M
# [15] = target: antigen of the Antigen binding ELISA (not named; BAN2401 is described as binding human Aβ protofibrils) (UniProt P05067); assay: antigen binding ELISA; formulation F13, 5°C/2M
# [16] = target: antigen of the Antigen binding ELISA (not named; BAN2401 is described as binding human Aβ protofibrils) (UniProt P05067); assay: antigen binding ELISA; formulation F15, 25°C/1M
# [17] = target: antigen of the Antigen binding ELISA (not named; BAN2401 is described as binding human Aβ protofibrils) (UniProt P05067); assay: antigen binding ELISA; formulation F15, freeze-thaw 3 cycles
# [18] = target: antigen of the Antigen binding ELISA (not named; BAN2401 is described as binding human Aβ protofibrils) (UniProt P05067); assay: antigen binding ELISA; formulation F0, initial
# [19] = target: CD32a (UniProt P12318); assay: CD32a binding assay; formulation F15, 25°C dark/7 D
# [20] = target: antigen of the Antigen binding ELISA (not named; BAN2401 is described as binding human Aβ protofibrils) (UniProt P05067); assay: antigen binding ELISA; formulation F15, 25°C 1000 lx/7 D
# [21] = target: CD32a (UniProt P12318); assay: CD32a binding assay; formulation F13, 25°C/2M
# [22] = target: antigen of the Antigen binding ELISA (not named; BAN2401 is described as binding human Aβ protofibrils) (UniProt P05067); assay: antigen binding ELISA; formulation F15, initial
# [23] = target: CD32a (UniProt P12318); assay: CD32a binding assay; formulation F18, 25°C 1000 lx/7 D
# [24] = target: antigen of the Antigen binding ELISA (not named; BAN2401 is described as binding human Aβ protofibrils) (UniProt P05067); assay: antigen binding ELISA; formulation F0, 25°C/1M
# [25] = target: antigen of the Antigen binding ELISA (not named; BAN2401 is described as binding human Aβ protofibrils) (UniProt P05067); assay: antigen binding ELISA; formulation F0, 5°C/2M
# [26] = target: CD32a (UniProt P12318); assay: CD32a binding assay; formulation F15, 25°C 1000 lx/7 D
# [27] = target: CD32a (UniProt P12318); assay: CD32a binding assay; formulation F15, 5°C/2M
# [28] = target: CD32a (UniProt P12318); assay: CD32a binding assay; formulation F17, 25°C/2M
# [29] = target: antigen of the Antigen binding ELISA (not named; BAN2401 is described as binding human Aβ protofibrils) (UniProt P05067); assay: antigen binding ELISA; formulation F13, initial
# [30] = target: antigen of the Antigen binding ELISA (not named; BAN2401 is described as binding human Aβ protofibrils) (UniProt P05067); assay: antigen binding ELISA; formulation F13, 25°C/1M
# [31] = target: CD32a (UniProt P12318); assay: CD32a binding assay; formulation F15, initial
# [32] = target: antigen of the Antigen binding ELISA (not named; BAN2401 is described as binding human Aβ protofibrils) (UniProt P05067); assay: antigen binding ELISA; formulation F13, 25°C/2M
# [33] = target: CD32a (UniProt P12318); assay: CD32a binding assay; formulation F15, freeze-thaw 3 cycles
# [34] = target: antigen of the Antigen binding ELISA (not named; BAN2401 is described as binding human Aβ protofibrils) (UniProt P05067); assay: antigen binding ELISA; formulation F18, 25°C/2M
# [35] = target: CD32a (UniProt P12318); assay: CD32a binding assay; formulation F0, 5°C/2M
# [36] = target: CD32a (UniProt P12318); assay: CD32a binding assay; formulation F18, initial; remark: listed apart in the source
# [37] = target: CD32a (UniProt P12318); assay: CD32a binding assay; formulation F18, 25°C/2M
# [38] = target: antigen of the Antigen binding ELISA (not named; BAN2401 is described as binding human Aβ protofibrils) (UniProt P05067); assay: antigen binding ELISA; formulation F18, initial
# [39] = target: antigen of the Antigen binding ELISA (not named; BAN2401 is described as binding human Aβ protofibrils) (UniProt P05067); assay: antigen binding ELISA; formulation F15, 25°C/2M
# [40] = target: CD32a (UniProt P12318); assay: CD32a binding assay; formulation F13, initial
# [41] = target: CD32a (UniProt P12318); assay: CD32a binding assay; formulation F0, 25°C/2M
# [42] = target: antigen of the Antigen binding ELISA (not named; BAN2401 is described as binding human Aβ protofibrils) (UniProt P05067); assay: antigen binding ELISA; formulation F0, 25°C/2M
# [43] = target: antigen of the Antigen binding ELISA (not named; BAN2401 is described as binding human Aβ protofibrils) (UniProt P05067); assay: antigen binding ELISA; formulation F17, 5°C/2M
# [44] = target: antigen of the Antigen binding ELISA (not named; BAN2401 is described as binding human Aβ protofibrils) (UniProt P05067); assay: antigen binding ELISA; formulation F18, freeze-thaw 3 cycles
# [45] = target: CD32a (UniProt P12318); assay: CD32a binding assay; formulation F13, 5°C/2M
# [46] = target: CD32a (UniProt P12318); assay: CD32a binding assay; formulation F15, 25°C/1M
# [47] = target: antigen of the Antigen binding ELISA (not named; BAN2401 is described as binding human Aβ protofibrils) (UniProt P05067); assay: antigen binding ELISA; formulation F15, 25°C dark/7 D
# [48] = target: CD32a (UniProt P12318); assay: CD32a binding assay; formulation F18, 25°C dark/7 D
# [49] = target: CD32a (UniProt P12318); assay: CD32a binding assay; formulation F17, initial
# [50] = target: antigen of the Antigen binding ELISA (not named; BAN2401 is described as binding human Aβ protofibrils) (UniProt P05067); assay: antigen binding ELISA; formulation F17, initial
# [51] = target: CD32a (UniProt P12318); assay: CD32a binding assay; formulation F0, initial
# [52] = target: antigen of the Antigen binding ELISA (not named; BAN2401 is described as binding human Aβ protofibrils) (UniProt P05067); assay: antigen binding ELISA; formulation F17, 25°C/2M
# [53] = target: CD32a (UniProt P12318); assay: CD32a binding assay; formulation F18, 25°C/1M
# [54] = target: CD32a (UniProt P12318); assay: CD32a binding assay; formulation F18, 5°C/2M
# Chain of CD32a (P12318 36-218): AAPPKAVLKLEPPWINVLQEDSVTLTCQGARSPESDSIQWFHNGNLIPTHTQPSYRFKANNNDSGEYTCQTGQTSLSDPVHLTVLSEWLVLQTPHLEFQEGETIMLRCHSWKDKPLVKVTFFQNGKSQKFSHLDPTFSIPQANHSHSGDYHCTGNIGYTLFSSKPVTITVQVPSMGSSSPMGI
substance,measurement,setting,value
BAN2401 (antibody),FcR (Binding assay (CD32a)),[1],95.3%
same,ELISA (Antigen binding ELISA),[2],118%
same,ELISA (Antigen binding ELISA),[3],107%
same,FcR (Binding assay (CD32a)),[4],95.5%
same,ELISA (Antigen binding ELISA),[5],105%
same,FcR (Binding assay (CD32a)),[6],102%
same,FcR (Binding assay (CD32a)),[7],92.4%
same,ELISA (Antigen binding ELISA),[8],97%
same,FcR (Binding assay (CD32a)),[9],106%
same,ELISA (Antigen binding ELISA),[10],109%
same,FcR (Binding assay (CD32a)),[11],104%
same,FcR (Binding assay (CD32a)),[12],99.4%
same,FcR (Binding assay (CD32a)),[13],103%
same,ELISA (Antigen binding ELISA),[14],123%
same,ELISA (Antigen binding ELISA),[15],104%
same,ELISA (Antigen binding ELISA),[16],104%
same,ELISA (Antigen binding ELISA),[17],108%
same,ELISA (Antigen binding ELISA),[18],101%
same,FcR (Binding assay (CD32a)),[19],104%
same,ELISA (Antigen binding ELISA),[20],101%
same,FcR (Binding assay (CD32a)),[21],102%
same,ELISA (Antigen binding ELISA),[22],102%
same,FcR (Binding assay (CD32a)),[23],109%
same,ELISA (Antigen binding ELISA),[24],103%
same,ELISA (Antigen binding ELISA),[25],103%
same,FcR (Binding assay (CD32a)),[26],118%
same,FcR (Binding assay (CD32a)),[27],99%
same,FcR (Binding assay (CD32a)),[28],105%
same,ELISA (Antigen binding ELISA),[29],109%
same,ELISA (Antigen binding ELISA),[30],104%
same,FcR (Binding assay (CD32a)),[31],109%
same,ELISA (Antigen binding ELISA),[32],107%
same,FcR (Binding assay (CD32a)),[33],108%
same,ELISA (Antigen binding ELISA),[34],97.8%
same,FcR (Binding assay (CD32a)),[35],93.8%
same,FcR (Binding assay (CD32a)),[36],106%
same,FcR (Binding assay (CD32a)),[37],92.9%
same,ELISA (Antigen binding ELISA),[38],108%
same,ELISA (Antigen binding ELISA),[39],96.9%
same,FcR (Binding assay (CD32a)),[40],101%
same,FcR (Binding assay (CD32a)),[41],93.5%
same,ELISA (Antigen binding ELISA),[42],91.8%
same,ELISA (Antigen binding ELISA),[43],126%
same,ELISA (Antigen binding ELISA),[44],104%
same,FcR (Binding assay (CD32a)),[45],100%
same,FcR (Binding assay (CD32a)),[46],98.3%
same,ELISA (Antigen binding ELISA),[47],107%
same,FcR (Binding assay (CD32a)),[48],105%
same,FcR (Binding assay (CD32a)),[49],117%
same,ELISA (Antigen binding ELISA),[50],107%
same,FcR (Binding assay (CD32a)),[51],91.7%
same,ELISA (Antigen binding ELISA),[52],102%
same,FcR (Binding assay (CD32a)),[53],91.9%
same,FcR (Binding assay (CD32a)),[54],94.7%
